In assay [1] the target is T1, human Protein S (human, UniProt P07225 42-676).
T1 construct: Called 'full length Protein S' / 'human full-length Protein S'; It was coated on plates (ELISA), Eu-labeled (LANCE) or immobilized on a chip (Biacore); also called PS; full length Protein S
T1 sequence: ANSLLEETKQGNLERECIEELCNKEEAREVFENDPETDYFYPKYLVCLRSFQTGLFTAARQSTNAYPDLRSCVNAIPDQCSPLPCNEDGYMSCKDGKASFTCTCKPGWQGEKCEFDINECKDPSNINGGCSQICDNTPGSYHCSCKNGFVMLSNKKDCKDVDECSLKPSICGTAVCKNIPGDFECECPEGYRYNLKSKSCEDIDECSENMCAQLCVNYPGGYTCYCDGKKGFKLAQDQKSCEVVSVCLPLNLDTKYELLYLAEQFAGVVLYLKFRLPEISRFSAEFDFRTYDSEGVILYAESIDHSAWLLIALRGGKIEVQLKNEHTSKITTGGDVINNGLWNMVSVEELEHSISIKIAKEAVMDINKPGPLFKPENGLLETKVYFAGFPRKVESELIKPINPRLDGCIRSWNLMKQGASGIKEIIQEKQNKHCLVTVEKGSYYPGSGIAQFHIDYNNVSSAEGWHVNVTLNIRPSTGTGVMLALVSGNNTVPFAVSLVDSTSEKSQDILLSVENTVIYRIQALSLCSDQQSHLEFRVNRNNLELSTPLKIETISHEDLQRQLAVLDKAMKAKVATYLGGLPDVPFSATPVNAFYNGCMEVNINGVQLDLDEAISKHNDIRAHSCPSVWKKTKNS
Description: LANCE TR-FRET competition; Eu-labeled Protein S; competitor tracer JBS0684. The procedure:
(§1) Peptides also were characterized in a competition, homogenous europium-based TR-FRET assay (LANCE IC50 assay) using JBS0684 as a tracer (i.e., competitor for Protein S binding). The following reagents were mixed together in a Perkin-Elmer ProxiPlate MTP well (indicated concentration is the final concentration): Eu-labeled Protein S (10 nM), Ulight™-labeled Streptavidin (100 nM), tracer (JBS0684 (300 nM)), and peptide (titrated in three-fold dilution steps). The final volume was 50 μl/well. The reaction mix was incubated for 1 hour at room temperature, then the fluorescence emission at 665 nm was recorded on a multi-mode reader (SpectraMax® M5, Molecular Devices) using the following instrument settings: Ex 340 nm, Em 665 nm, delay 50 μsec, integration 100 μsec, reads 100. Binding of tracer peptides to soluble europium-labeled Protein S was detected by Streptavidin labeled with an acceptor fluorophor (ULight™). Inhibition of tracer-binding to Protein S by a non-biotinylated peptide results in a decrease of TR-FRET between the Eu-labeled Protein S and ULight™-labeled Streptavidin. IC50 values were obtained from peptide titration curves at constant tracer concentration using non-linear regression of the fluorescence emission signals at 665 nm.
Several peptides having multiple substitutions in the JBS2572 amino acid sequence were synthesized and evaluated using LANCE IC50 and CAT assays described above. For the assays, pooled normal plasma was supplemented with 3 nM APC and triggered with 6 pM TF, and 15 μM phospholipids (DOPC/POPS 80/20). Stock APC was diluted with TF-PL-MIX to 24 nM (plasma concentration: 3 nM).
(TR-FRET usually uses a lanthanide donor and a delayed reading to cut background.)

The target of assay [2] is T1, human Protein S. Description: LANCE TR-FRET competition; Eu-Protein S 10 nM, competitor tracer JBS0684 300 nM; Molecular Devices M5 reader. The procedure: as §1
The target in assay [3] is T1, human Protein S. Description: cell-based or functional assay.
The target of assay [4] is T1, human Protein S. As to the kind of experiment: Biacore (SPR), Protein S immobilized, 25 °C. The procedure: (§2) Protein S affinity also was determined via Biacore (Biacore 3000 or Biacore T200) using human full-length Protein S and human GAS6. Briefly, 1000 RU of Protein S or GAS6 were immobilized on a CMS chip. In order to probe the kinetics of Protein S binding peptides to Protein S, the peptides were injected at various concentrations in a HBS-buffer containing 3 mM CaCl₂ and 1% DMSO to the flow cell and allowed to interact with the immobilized proteins on the sensor chip. The chip could be regenerated with 4 M MgCl₂ in HBS-buffer. Sensorgrams were fitted to a Langmuir binding model for the determination of kₒₙ and koff and the calculation of KD. Peptides were tested on their specificity to Protein S with peptide binding studies on the anti-target GAS6.
(SPR reads the build-up and loss of mass on a sensor chip optically.)

The target of the next assay is T2, human GAS6 (human, UniProt Q14393 49-678, limits assumed).
T2 construct: Immobilized on the Biacore chip; also called protein encoded by the Growth Arrest Specific-6 gene; anti-target
T2 sequence (looked up): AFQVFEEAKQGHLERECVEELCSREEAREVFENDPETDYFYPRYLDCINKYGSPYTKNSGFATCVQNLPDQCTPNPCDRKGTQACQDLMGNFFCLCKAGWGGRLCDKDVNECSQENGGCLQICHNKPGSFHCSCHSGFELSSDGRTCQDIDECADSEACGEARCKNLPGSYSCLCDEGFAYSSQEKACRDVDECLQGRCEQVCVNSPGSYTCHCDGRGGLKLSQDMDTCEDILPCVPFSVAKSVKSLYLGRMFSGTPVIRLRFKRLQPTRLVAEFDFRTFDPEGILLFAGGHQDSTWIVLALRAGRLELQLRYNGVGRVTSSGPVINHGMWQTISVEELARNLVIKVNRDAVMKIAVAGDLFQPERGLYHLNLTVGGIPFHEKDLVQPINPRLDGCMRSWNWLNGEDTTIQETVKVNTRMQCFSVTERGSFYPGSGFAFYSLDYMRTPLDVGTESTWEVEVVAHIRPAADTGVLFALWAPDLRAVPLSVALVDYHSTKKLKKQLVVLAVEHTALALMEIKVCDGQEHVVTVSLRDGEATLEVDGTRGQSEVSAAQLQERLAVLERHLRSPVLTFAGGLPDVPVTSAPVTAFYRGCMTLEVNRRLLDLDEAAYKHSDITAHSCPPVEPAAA
As to the kind of experiment: Biacore (SPR), GAS6 immobilized on the chip; sensorgrams reviewed visually. The procedure: as §2
Interactions with the anti-target GAS6 were measured via Biacore (surface plasmon resonance) (see Example 2). The maximum signal from the interaction of the peptides with human GAS6 was much lower than the signals obtained with Protein S as interaction partner. Kinetic analysis of the low GAS6 binding signals was error prone, and sensorgrams were reviewed visually to estimate anti-target binding. […]

The term IC50 denotes the point on the concentration scale where inhibition reaches its midpoint. A low value points to higher potency. The term Kd denotes the constant that tells how readily two partners part at equilibrium. A low value points to higher affinity. Usually koff stands for the first-order rate constant of dissociation. A word on the kon: it is the rate constant with which the complex forms.

B1: JBS2572 (peptide)
peptide: Ac-TGLVSAGWYDYNFDHYREFT-NH2
notes: also called parent peptide JBS2572
B1 registered an IC50 with human Protein S [1] of 9.7 nM. The molecule further showed an IC50 with human Protein S [2] of 49 nM. The “CAT EC50” value with human Protein S [3] worked out at 14 nM. In the assay with human Protein S [4], this molecule came in with a Kd of 6 nM, an off-rate constant (koff) of 0.00148 s⁻¹ and a kon of 248000 M⁻¹ s⁻¹. The binding result with human GAS6 was “no binding (tested: 1 µM)”.
